# In patent publication US10994047B2, “Peptide dendrimers comprising fibrinogen-binding peptides” (HAEMOSTATIX LIMITED, priority 2014, dated 2021):
# Where no end group is shown, it is not given here.
# Legend:
# [1] = biological target: T1, fibrinogen hole 'a' and hole 'b' (Homo sapiens, UniProt P02675+P02679); details: cited from earlier work
# T1 sequence (P02679 27-433 limits assumed): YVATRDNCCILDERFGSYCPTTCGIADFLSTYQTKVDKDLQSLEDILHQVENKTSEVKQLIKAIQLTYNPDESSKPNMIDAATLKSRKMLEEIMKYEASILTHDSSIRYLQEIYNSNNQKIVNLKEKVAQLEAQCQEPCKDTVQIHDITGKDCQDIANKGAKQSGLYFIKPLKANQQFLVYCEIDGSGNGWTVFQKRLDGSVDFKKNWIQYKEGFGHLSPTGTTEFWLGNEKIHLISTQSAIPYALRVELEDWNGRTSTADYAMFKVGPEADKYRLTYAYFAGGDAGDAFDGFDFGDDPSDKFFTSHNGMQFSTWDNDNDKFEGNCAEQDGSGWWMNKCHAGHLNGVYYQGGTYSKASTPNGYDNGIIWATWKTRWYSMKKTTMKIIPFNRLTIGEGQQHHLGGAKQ
# T1 sequence (P02675 31-491): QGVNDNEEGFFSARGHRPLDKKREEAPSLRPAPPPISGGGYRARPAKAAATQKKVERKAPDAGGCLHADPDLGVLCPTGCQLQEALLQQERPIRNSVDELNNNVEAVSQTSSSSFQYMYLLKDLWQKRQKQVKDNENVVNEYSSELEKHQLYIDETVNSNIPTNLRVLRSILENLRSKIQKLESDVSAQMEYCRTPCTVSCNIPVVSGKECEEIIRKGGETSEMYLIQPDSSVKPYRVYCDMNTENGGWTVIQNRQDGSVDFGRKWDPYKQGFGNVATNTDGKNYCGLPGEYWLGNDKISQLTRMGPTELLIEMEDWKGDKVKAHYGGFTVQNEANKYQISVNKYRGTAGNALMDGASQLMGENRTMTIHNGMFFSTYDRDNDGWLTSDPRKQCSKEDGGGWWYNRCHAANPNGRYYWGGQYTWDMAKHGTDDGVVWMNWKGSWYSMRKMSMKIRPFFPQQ
# T1 sequence (P02671 20-629 partner limits assumed): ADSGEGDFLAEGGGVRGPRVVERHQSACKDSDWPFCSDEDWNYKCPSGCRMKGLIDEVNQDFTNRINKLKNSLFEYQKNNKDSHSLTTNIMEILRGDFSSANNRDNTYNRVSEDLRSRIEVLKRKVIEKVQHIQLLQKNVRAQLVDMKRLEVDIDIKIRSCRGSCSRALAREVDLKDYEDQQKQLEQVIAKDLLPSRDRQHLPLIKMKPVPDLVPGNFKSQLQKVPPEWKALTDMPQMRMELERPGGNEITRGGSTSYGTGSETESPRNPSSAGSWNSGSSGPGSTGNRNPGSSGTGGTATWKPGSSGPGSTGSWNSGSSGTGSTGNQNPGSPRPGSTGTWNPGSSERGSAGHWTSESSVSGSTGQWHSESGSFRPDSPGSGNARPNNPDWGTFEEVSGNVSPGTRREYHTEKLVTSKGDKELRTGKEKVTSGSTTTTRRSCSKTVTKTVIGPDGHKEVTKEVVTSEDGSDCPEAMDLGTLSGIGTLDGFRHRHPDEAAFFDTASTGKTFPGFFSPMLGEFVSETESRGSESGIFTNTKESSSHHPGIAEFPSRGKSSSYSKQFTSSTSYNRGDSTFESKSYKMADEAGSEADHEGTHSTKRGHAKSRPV
# [2] = biological target: T2, purified human fibrinogen (Homo sapiens, UniProt P02675+P02679); experiment: Copolymerisation of peptide dendrimer with purified fibrinogen, clotting time on KC4 Delta coagulation analyser; type: biochemical
# T2 sequence (P02679 27-433 limits assumed): T1 sequence (P02679 27-433 limits assumed)
# T2 sequence (P02675 31-491): T1 sequence (P02675 31-491)
# T2 sequence (P02671 20-629 partner limits assumed): T1 sequence (P02671 20-629 partner limits assumed)
# Experimental: The ability of Peptide Dendrimer No. 12 to polymerise fibrinogen was assessed. 30 μl of dendrimer in solution, at concentration ranging from 0.005-2 mg/ml, was added to 100 μl purified human fibrinogen at 3 mg/ml (the level of fibrinogen found in the blood). Polymerisation of fibrinogen was analysed using a Sigma Amelung KC4 Delta coagulation analyser.
# The ability of Peptide Dendrimer Nos. 4, 5, 10, 11, and 12 to copolymerise with fibrinogen was assessed using the same method described in Example 2. The concentration of each dendrimer was varied from 0.005-0.5 mg/ml.
# The ability of the dendrimers to copolymerise with fibrinogen was assessed using the same method described in Example 2, for a concentration of each dendrimer ranging from 0.005-0.5 mg/ml.
# [3] = biological target: T3, fibrinogen in human plasma (Homo sapiens, UniProt P02675+P02679); experiment: Polymerisation of fibrinogen in human plasma, clotting time; type: biochemical; details: 37° C.; for ability to polymerise fibrinogen in human plasma: 30 μL dendrimer 0.25 mg/ml added to 100 μL human plasma, FIG. 7
# T3 construct: from tissue; host or cells: human plasma
# T3 sequence (P02679 27-433 limits assumed): T1 sequence (P02679 27-433 limits assumed)
# T3 sequence (P02675 31-491): T1 sequence (P02675 31-491)
# T3 sequence (P02671 20-629 partner limits assumed): T1 sequence (P02671 20-629 partner limits assumed)
# Experimental: 30 μL of each dendrimer (at a concentration of 0.25 mg/ml) was added to 100 μL human plasma at 37° C., and polymerisation of fibrinogen was determined using a Sigma Amelung KC4 Delta coagulation analyzer.
# human fibrinogen = biological target: T4, human fibrinogen (Homo sapiens, UniProt P02675+P02679); experiment: Clotting activity of dendrimers extracted from gamma-irradiated gelatin paste; type: biochemical; details: 37° C.
# T4 sequence (P02679 27-433 limits assumed): T1 sequence (P02679 27-433 limits assumed)
# T4 sequence (P02675 31-491): T1 sequence (P02675 31-491)
# T4 sequence (P02671 20-629 partner limits assumed): T1 sequence (P02671 20-629 partner limits assumed)
# Experimental: 2 ml of solution of Peptide Dendrimer No. 12 or 13 was mixed with SURGIFLO Haemostatic Matrix (a hydrated flowable gelatin matrix) to form a paste of each peptide. Each paste was sterilised by irradiation with ^60Co gamma rays at a dose of 30 kGy, and then stored at room temperature. Samples of the sterilised pastes were used for testing after storage for two and four weeks.
# After storage, peptide dendrimers were extracted from each paste using 10 mM HEPES buffer. 30 μL of each extract (with a peptide concentration of about 0.25 mg/ml) was added to 100 μL of human fibrinogen at 3 mg/ml, and the ability of each dendrimer to polymerise fibrinogen (the ‘clotting’ activity) at 37° C. was determined using a Sigma Amelung KC4 Delta coagulation analyser. The polymerisation activity of non-irradiated control samples was also determined.
# [4] = dendrimer 0.005-0.5 mg/ml, fibrinogen 3 mg/ml, FIG. 2 and 3
substance,measurement,setting,value
GHRPY- (SEQ ID NO: 11) (listed as Homo sapiens),binding preference for hole 'a' or hole 'b' of fibrinogen,[1],binds strongly and preferentially to the ‘b’ hole of fibrinogen
GPRP- (SEQ ID NO: 1),binding preference for hole 'a' or hole 'b' of fibrinogen,[1],binds strongly and preferentially to the ‘a’ hole of fibrinogen
GPRPFPA (listed as Homo sapiens) [GPRPFPA (SEQ ID NO: 3)],binding preference for hole 'a' or hole 'b' of fibrinogen,[1],binds with high preference for hole ‘a’ in fibrinogen
GPRPG (SEQ ID NO: 15) ((5)..(5) Carbox-terminal end may comprise an amide group; listed as Homo sapiens),binding preference for hole 'a' or hole 'b' of fibrinogen,[1],"binds to hole ‘a’ and hole ‘b’ of fibrinogen, but with some preference for hole ‘a’"
"Peptide Dendrimer No. 8: three-branch dendrimer: two peptides GPRPG, third APFPRPG attached by its amino-terminal end, carboxy-terminal amide (chain 2 APFPRPG-NH2; also: three-branch dendrimer core: two GPRPG, APFPRPG attached by its amino-terminal end; listed as Homo sapiens)",ability to copolymerise with fibrinogen (clotting time),[2]; [4],able to copolymerise with fibrinogen
same,ability to polymerise fibrinogen in human plasma,[3],not able to polymerise fibrinogen in human plasma
"Peptide Dendrimer No. 9: three-branch dendrimer: two peptides GPRPFPA, third APFPRPG attached by its amino-terminal end, carboxy-terminal amide (chain 2 APFPRPG-NH2; also: three-branch dendrimer core: two GPRPFPA, APFPRPG attached by its amino-terminal end; listed as Homo sapiens)",ability to copolymerise with fibrinogen (clotting time),[2]; [4],very active in copolymerising with fibrinogen
same,ability to polymerise fibrinogen in human plasma,[3],not able to polymerise fibrinogen in human plasma
"Peptide Dendrimer No. 10: three-branch dendrimer, three GPRPG peptides each attached by carboxy-terminal end to the branched core (also: three copies of chain 1 attached by C-termini to a branched core; listed as Homo sapiens)",clotting times compared between dendrimers,"[2]; concentrations below ~0.125 mg/ml dendrimer, FIG. 2",faster clotting times than dendrimer no. 4
same,ability to polymerise fibrinogen in human plasma,[3],able to polymerise fibrinogen in human plasma
"Peptide Dendrimer No. 12: five-arm dendrimer, GPRPG- peptides; branched core with five consecutive lysine residues linked through side chains (chain KKKKK; also: five-arm dendrimer of GPRPG on core of five lysines linked through side chains, attachment places not given here)",ability to copolymerise with fibrinogen (clotting time),"[2]; dendrimer 0.005-2 mg/ml, 100 μl purified human fibrinogen 3 mg/ml, FIG. 1",able to copolymerise with fibrinogen almost instantaneously
same,clotting,"[2]; dendrimer range ~0.02-0.5 mg/ml, FIG. 2",almost instantaneous clotting
same,"Clotting activity, Non-irradiated control","human fibrinogen; extract from gelatin paste, about 0.25 mg/ml peptide, human fibrinogen 3 mg/ml, not irradiated",1 s
same,"Clotting activity, Storage for 2 weeks post irradiation","human fibrinogen; paste irradiated 30 kGy 60Co gamma, stored 2 weeks at room temperature, extract about 0.25 mg/ml, fibrinogen 3 mg/ml",1 s
same,"Clotting activity, Storage for 4 weeks post irradiation","human fibrinogen; paste irradiated 30 kGy 60Co gamma, stored 4 weeks at room temperature, extract about 0.25 mg/ml, fibrinogen 3 mg/ml",1 s
same,ability to polymerise fibrinogen in human plasma,[3],able to polymerise fibrinogen in human plasma
same,clotting time in human plasma,"[3]; dendrimer 0.25 mg/ml, human plasma",less than one
